This is an account of results in publication PMC6851107, “Characterization of the dynamics and the conformational entropy in the binding between TAZ1 and CTAD-HIF-1α” (Scientific Reports, 2019).

The target in the assay is T1, transcriptional adapter zinc binding 1 (TAZ1) domain of CREB binding protein (CBP) (mouse (numbering; the same sequence in …, UniProt P45481 340-439).
T1 construct: Isotope-labelled (15N; or 2H, 13C, 15N; or 10% 13C) or unlabelled, depending on the NMR sample
Description: NMR relaxation (15N backbone and 2H methyl side chain) of the complex; 1.3 mM labelled TAZ1 with 1.8 mM unlabelled CTAD-HIF-1α, and 1.3 mM labelled CTAD-HIF-1α with 1.8 mM unlabelled TAZ1; 15 mM HEPES pH 6.8, 50 mM NaCl, 3 mM TCEP, 0.01% NaN3, 7% D2O; 303 K. The following applies: both partners purified.

T1 sequence (P45481 340-439): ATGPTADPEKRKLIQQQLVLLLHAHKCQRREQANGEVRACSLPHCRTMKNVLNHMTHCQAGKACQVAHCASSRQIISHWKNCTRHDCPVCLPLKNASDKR

B1: C-terminal transactivation domain of hypoxia inducible factor subunit 1α (CTAD-HIF-1α) (domain or fragment, UniProt Q16665 776-826, looked up)
chain: SDLACRLLGQSMDESGLPQLTSYDCEVNAPIQGSRNLLQGEELLRALDQVN
notes: Unlabelled or 2H, 13C, 15N-labelled, depending on the NMR sample
Turning to B1, the binding result is “binds”.
